Patent US20130011401A1

Biological target: human monomeric APP-tagged SIRPα V domain protein (human) (UniProt P78324)
Assay: BiaCORE SPR; binder captured on Protein A, monovalent APP-tagged SIRPα V domain as analyte (Method 2.1)

## CD47-ECD IgG1 Fc fusion protein (from UniProt Q08722 19-141)
  Kd: 3000 nM
